The text below walks through data of PMC9917443.

The experiment has as its target purified recombinant SD1/2 protein. In words: ITC; peptide (300 μM in the syringe) injected into SD1/2 protein (30 μM) in the cell; 25°C; 20 mM NaPi (pH 6.8), 50 mM NaCl, 0.5 mM EDTA; one-site binding model. On the technique in general: In ITC the heat of successive injections is recorded.

The Kd is the constant that tells how readily two partners part at equilibrium. What is called stoichiometry N is a count of units in the complex or per binding partner.

In the case of Ac-DWGADTVSGDGYDAWDD-NH2 [sc-APP17], the Kd was above 300 µM.

Ac-DDSDVWWGGADTDYADG-NH2 [APP17]: the Kd was found to be 0.543 µM and the stoichiometry N was found to be 1.05.
